Results: patent publication CN108623681A (ZHUHAI TAINUO MAIBO BIOTECHNOLOGY CO LTD; GUANGZHOU …, dated 2018)

Biological target: 破伤风毒素 (Clostridium tetani, UniProt P04958 2-1315)
Sequence (P04958 2-457 limits assumed, chain 1 of 2): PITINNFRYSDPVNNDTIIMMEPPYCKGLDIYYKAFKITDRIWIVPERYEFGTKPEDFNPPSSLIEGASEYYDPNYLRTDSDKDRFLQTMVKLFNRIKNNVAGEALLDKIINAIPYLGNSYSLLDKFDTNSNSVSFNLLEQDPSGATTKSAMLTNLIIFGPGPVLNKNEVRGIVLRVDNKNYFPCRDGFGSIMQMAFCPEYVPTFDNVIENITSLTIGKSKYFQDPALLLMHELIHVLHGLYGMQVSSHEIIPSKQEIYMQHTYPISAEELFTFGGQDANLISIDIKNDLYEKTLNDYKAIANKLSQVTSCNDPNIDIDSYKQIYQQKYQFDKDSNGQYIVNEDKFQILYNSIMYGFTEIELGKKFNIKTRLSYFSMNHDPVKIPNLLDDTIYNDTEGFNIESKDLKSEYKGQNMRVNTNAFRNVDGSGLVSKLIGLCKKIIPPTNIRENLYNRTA
Sequence (P04958 458-1315 limits assumed, chain 2 of 2): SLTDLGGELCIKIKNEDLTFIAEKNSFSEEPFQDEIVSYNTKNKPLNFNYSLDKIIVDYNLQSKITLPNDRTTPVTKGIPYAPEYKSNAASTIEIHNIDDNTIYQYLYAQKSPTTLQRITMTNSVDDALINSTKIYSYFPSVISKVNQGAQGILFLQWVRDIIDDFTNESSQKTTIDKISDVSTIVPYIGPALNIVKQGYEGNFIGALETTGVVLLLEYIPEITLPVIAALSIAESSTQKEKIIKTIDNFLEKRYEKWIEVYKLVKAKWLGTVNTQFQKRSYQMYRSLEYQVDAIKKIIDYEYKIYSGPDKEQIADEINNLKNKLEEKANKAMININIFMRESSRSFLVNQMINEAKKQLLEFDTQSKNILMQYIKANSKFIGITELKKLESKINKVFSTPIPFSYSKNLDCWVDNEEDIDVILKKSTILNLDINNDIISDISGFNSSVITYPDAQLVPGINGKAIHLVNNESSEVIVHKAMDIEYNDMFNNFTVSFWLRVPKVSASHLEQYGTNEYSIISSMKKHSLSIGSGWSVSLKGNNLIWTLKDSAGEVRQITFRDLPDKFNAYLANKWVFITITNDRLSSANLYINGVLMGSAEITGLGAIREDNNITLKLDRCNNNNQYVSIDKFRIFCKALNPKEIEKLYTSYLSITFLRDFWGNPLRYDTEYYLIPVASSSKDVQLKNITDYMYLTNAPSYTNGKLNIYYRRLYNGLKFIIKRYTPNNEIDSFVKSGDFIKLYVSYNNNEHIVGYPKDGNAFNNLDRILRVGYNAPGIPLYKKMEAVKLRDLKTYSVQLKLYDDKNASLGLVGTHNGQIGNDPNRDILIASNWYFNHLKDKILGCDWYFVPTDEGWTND

B1: 抗体TRN1015 (antibody, V domains shown)
VH: EVQLVESGGGRVKPGGSLRLSCSVSGFGIGIYTMNWVRQAPGKGLEWVSSISGTSQYIYYANSVRGRFTISRDNAENSLYLQLNNLRAEDTALYYCVSGSSLDYWGQGTLVTISS
VL: DIQLTQSPSSLSASVGGRVTITCRASQNIGTNLNWFQQKPGTAPNLLIYGASTLQSGVPSRFSGSGSGTTFTLTIDSLQPEDFATYYCYQNYNSPKTFGQGTKVDLK
- koff: 9.4e-05 s⁻¹
- kon: 38800 M⁻¹ s⁻¹
